Laboratory results as given in US20260242478A1 (published 2026).
Where no end group is shown, it is not given here.

Columns and labels:
anti-CD28 Fab [1] = assay: BLI (Octet): biotinylated peptide on streptavidin sensor, anti-CD28 Fab titrated in solution, 1:1 model
Target sequence in this assay (VH, as listed by the source, chain 1 of 2): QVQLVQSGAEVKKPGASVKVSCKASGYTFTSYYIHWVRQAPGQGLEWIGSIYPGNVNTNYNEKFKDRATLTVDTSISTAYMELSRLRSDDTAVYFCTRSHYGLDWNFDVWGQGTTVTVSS
Target sequence in this assay (VL, as listed by the source, chain 2 of 2): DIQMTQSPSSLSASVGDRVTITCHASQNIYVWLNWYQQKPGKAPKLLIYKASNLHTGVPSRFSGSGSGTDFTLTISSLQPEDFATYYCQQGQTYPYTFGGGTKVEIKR

anti-CD28 Fab [2] = assay: competition ELISA, peptide titrated 0-100 uM against 1 nM anti-CD28 Fab, plate-bound CD28 as competitor
Target sequence in this assay (VH, as listed by the source, chain 1 of 2): as the sequence (VH, as listed by the source, chain 1 of 2) above
Target sequence in this assay (VL, as listed by the source, chain 2 of 2): as the sequence (VL, as listed by the source, chain 2 of 2) above

[3] = target: T1, Anti-CD28 Fab (SEQ ID NOs: 696, 697); assay: phage binding ELISA on plate-captured Fab, competitor CD28 antigen
T1 construct: In the phage ELISA the Fab was biotinylated and captured on neutravidin coated plates
Description: (§1) After panning, phage infected bacteria were plated out and colonies picked into 96 well blocks. Clonal phage was then amplified and separated from bacterial cells via centrifugation.
(§2) Clonal phage were harvested as crude supematants and screened via standard ELISAs. […] Prior to the addition of clonal phage, wells were incubated with blocking buffer and CD28 antigen or blocking buffer alone. Without washing or aspirating, clonal phage supematants were then added to the wells and incubated for a short time. Wells were then washed followed by detection of bound phage using a horse radish conjugated anti-M13 antibody. Clonal phage of interest were then sent for sequence analysis.

[4] = target: T1, Anti-CD28 Fab (SEQ ID NOs: 696, 697); assay: phage binding ELISA, biotinylated Fab on neutravidin plate, anti-M13 HRP detection;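 note: crude clonal phage supernatants added to Fab-coated wells pretreated with CD28 antigen or with blocking buffer only, bound phage measured after washing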
Description: as §1, §2

[5] = target: T2, Anti-PSMA Fab (SEQ ID NOs: 19, 20); assay: phage ELISA; clonal phage on captured PSMA Fab pre-incubated with PSMA antigen as competitor, anti-M13 HRP detection
T2 construct: also called 006 PSMA Fab
Description: (§3) Clonal phage were harvested as crude supernatants and screened via standard ELISAs. […] Prior to the addition of clonal phage. wells were incubated with blocking buffer and PSMA antigen or blocking buffer alone. Without washing or aspirating, clonal phage supernatants were then added to the wells and incubated for a short time. Wells were then washed followed by detection of bound phage using a horse radish conjugated anti-M13 antibody.

[6] = target: T2, Anti-PSMA Fab (SEQ ID NOs: 19, 20); assay: phage ELISA; clonal phage supernatant on biotinylated PSMA Fab captured on neutravidin plates, anti-M13 HRP detection
Description: as §3

T1 sequence (VH, as listed by the source, chain 1 of 2): as the sequence (VH, as listed by the source, chain 1 of 2) above
T1 sequence (VL, as listed by the source, chain 2 of 2): as the sequence (VL, as listed by the source, chain 2 of 2) above

Row | Binder | IC50 (anti-CD28 Fab [2]) [µM] | Anti-CD28 Fab signal in the presence of CD28 [3] | Anti-CD28 Fab (SEQ ID NOs: 696, 697) signal [4] | also measured
1 | YCEGHLPEYLAKCL (not fully specified; cysteine pairing not given here; also: biotinylated, site not given here) | – | – | – | Kd (anti-CD28 Fab [1]): 0.0447 µM; t1/2 (anti-CD28 Fab [1]): 60 s
2 | YCEGHLPEYLGKCL [Peptide-125] | 0.83 | – | – | –
3 | YCEGHLPEYLAKCL | 0.3 | – | – | –
4 | YCEGHSSEYIQKCL [Peptide-129] | 3.18 | – | – | –
5 | YCAGHSPINIGKCL (cysteine pairing not given here; also: displayed on phage, fused to pIII, Clonal phage supernatant; not shown: bacteriophage pIII to which the peptide is fused for display) [Phage-463] | – | 0.06 | 1.49 | –
6 | YCEGHSQEYLWKCL [Peptide-128] | 9.66 | – | – | –
7 | HCSGHHWLQVWKCF [Peptide-130] | > 100 | – | – | –
8 | GCQYPWAFDAMSCP (cysteine pairing not given here; also: displayed on phage, fused to pIII, Clonal phage supernatant; not shown: bacteriophage pIII to which the peptide is fused for display) [Phage-459] | – | 0.07 | 2.38 | –
9 | WCWDYKLWVPMTCP (cysteine pairing not given here; also: displayed on phage, fused to pIII, Clonal phage supernatant; not shown: bacteriophage pIII to which the peptide is fused for display) [Phage-464] | – | 0.11 | 2.51 | –
10 | YCWSHSPPFIKKCY [Peptide-131] | > 100 | – | – | –
11 | ECHWSMWAVGHACF (cysteine pairing not given here; also: displayed on phage, fused to pIII, Clonal phage supernatant; not shown: bacteriophage pIII to which the peptide is fused for display) [Phage-462] | – | 0.07 | 1.77 | –
12 | YCAGHAWQYINKCL (cysteine pairing not given here; also: displayed on phage, fused to pIII, Clonal phage supernatant; not shown: bacteriophage pIII to which the peptide is fused for display) [Phage-466] | – | 0.07 | 0.64 | –
13 | WECLKYTEANACTY (Clonal phage supernatant; not shown: bacteriophage pIII to which the peptide is fused for display) [Phage-455] | – | 0.07 | 1.55 | –
14 | PDCQTILFKPWCVR (cysteine pairing not given here; also: displayed on phage, fused to pIII, Clonal phage supernatant; not shown: bacteriophage pIII to which the peptide is fused for display) [Phage-457] | – | 0.06 | 2.09 | –
15 | YCEGHSPEYILKCL [Peptide-117] | 1.53 | – | – | –
16 | YCEGHRPEYILKCL [Peptide-118] | 13.3 | – | – | –
17 | WCWDYREWVPMTCP (cysteine pairing not given here; also: displayed on phage, fused to pIII, Clonal phage supernatant; not shown: bacteriophage pIII to which the peptide is fused for display) [Phage-461] | – | 0.08 | 2.3 | –
18 | WCWYYREWVPMTCP (cysteine pairing not given here; also: displayed on phage, fused to pIII, Clonal phage supernatant; not shown: bacteriophage pIII to which the peptide is fused for display) [Phage-467] | – | 0.07 | 1.85 | –

Row | Binder | IC50 (anti-CD28 Fab [2]) [µM] | Anti-CD28 Fab signal in the presence of CD28 [3] | Anti-CD28 Fab (SEQ ID NOs: 696, 697) signal [4] | also measured
19 | YCEGHSQENIWKCL [Peptide-124] | 4.07 | – | – | –
20 | YCEGHLPEYLEKCV [Peptide-133] | 2.9 | – | – | –
21 | YCEGHEGIYFWKCL [Peptide-119] | 77.7 | – | – | –
22 | YCEGHAPEYIAKCL (cysteine pairing not given here; also: biotinylated, site not given here) | – | – | – | Kd (anti-CD28 Fab [1]): 0.831 µM; koff (anti-CD28 Fab [1]): 0.028 s⁻¹; kon (anti-CD28 Fab [1]): 33700 M⁻¹ s⁻¹; t1/2 (anti-CD28 Fab [1]): 24 s
23 | WCWDYKLWVPTQCP (cysteine pairing not given here; also: displayed on phage, fused to pIII, Clonal phage supernatant; not shown: bacteriophage pIII to which the peptide is fused for display) [Phage-460] | – | 0.14 | 2.27 | –
24 | FMCLPQNPHPLCFK (Clonal phage supernatant; not shown: bacteriophage pIII to which the peptide is fused for display) [Phage-456] | – | 0.06 | 0.84 | –
25 | YCEGHLPEYIEKCL (cysteine pairing not given here; also: biotinylated, site not given here) | – | – | – | Kd (anti-CD28 Fab [1]): 0.926 µM; koff (anti-CD28 Fab [1]): 0.0239 s⁻¹; kon (anti-CD28 Fab [1]): 25800 M⁻¹ s⁻¹; t1/2 (anti-CD28 Fab [1]): 30 s
26 | YCEGHLPEYREKCL (not fully specified; cysteine pairing not given here; also: biotinylated, site not given here) [Peptide-126] | – | – | – | t1/2 (anti-CD28 Fab [1]): 36 s
27 | QCVWDRGTWWMACD [Phage-1759] | – | – | – | Phage binding ELISA, Anti-PSMA Fab signal in the presence of PSMA [5]: 0.052; Phage binding ELISA, Anti-PSMA Fab (SEQ ID NOs: 19, 20) signal [6]: 0.414
28 | ACDTYFAGMINECF (cysteine pairing not given here; also: displayed on phage, fused to pIII, Clonal phage supernatant; not shown: bacteriophage pIII to which the peptide is fused for display) [Phage-458] | – | 0.1 | 0.92 | –
29 | YWSCFQIPFTCFYF (Clonal phage supernatant; not shown: bacteriophage pIII to which the peptide is fused for display) [Phage-454] | – | 0.27 | 1.44 | –
30 | YCEGHLPEYIEKCL | 0.36 | – | – | –
31 | YCEGHAPEYIGKCL [Peptide-136] | 4.12 | – | – | –
32 | YCEGHAPEYIWKCL [Peptide-123] | 1.32 | – | – | –
33 | YCEGHAPEYIRKCL [Peptide-122] | 2.22 | – | – | –
34 | YCEGHLPEYIWKCL [Peptide-135] | 0.63 | – | – | –
35 | YCEGHAPEYIAKCL | 0.48 | – | – | –
